Tests used:
Assay in all cases: cleavage_in_vitro
[1] = system: T1, LPG10155 (Chryseobacterium geocarposphaerae); conditions: PAM SEQ ID 82
T1 sequence: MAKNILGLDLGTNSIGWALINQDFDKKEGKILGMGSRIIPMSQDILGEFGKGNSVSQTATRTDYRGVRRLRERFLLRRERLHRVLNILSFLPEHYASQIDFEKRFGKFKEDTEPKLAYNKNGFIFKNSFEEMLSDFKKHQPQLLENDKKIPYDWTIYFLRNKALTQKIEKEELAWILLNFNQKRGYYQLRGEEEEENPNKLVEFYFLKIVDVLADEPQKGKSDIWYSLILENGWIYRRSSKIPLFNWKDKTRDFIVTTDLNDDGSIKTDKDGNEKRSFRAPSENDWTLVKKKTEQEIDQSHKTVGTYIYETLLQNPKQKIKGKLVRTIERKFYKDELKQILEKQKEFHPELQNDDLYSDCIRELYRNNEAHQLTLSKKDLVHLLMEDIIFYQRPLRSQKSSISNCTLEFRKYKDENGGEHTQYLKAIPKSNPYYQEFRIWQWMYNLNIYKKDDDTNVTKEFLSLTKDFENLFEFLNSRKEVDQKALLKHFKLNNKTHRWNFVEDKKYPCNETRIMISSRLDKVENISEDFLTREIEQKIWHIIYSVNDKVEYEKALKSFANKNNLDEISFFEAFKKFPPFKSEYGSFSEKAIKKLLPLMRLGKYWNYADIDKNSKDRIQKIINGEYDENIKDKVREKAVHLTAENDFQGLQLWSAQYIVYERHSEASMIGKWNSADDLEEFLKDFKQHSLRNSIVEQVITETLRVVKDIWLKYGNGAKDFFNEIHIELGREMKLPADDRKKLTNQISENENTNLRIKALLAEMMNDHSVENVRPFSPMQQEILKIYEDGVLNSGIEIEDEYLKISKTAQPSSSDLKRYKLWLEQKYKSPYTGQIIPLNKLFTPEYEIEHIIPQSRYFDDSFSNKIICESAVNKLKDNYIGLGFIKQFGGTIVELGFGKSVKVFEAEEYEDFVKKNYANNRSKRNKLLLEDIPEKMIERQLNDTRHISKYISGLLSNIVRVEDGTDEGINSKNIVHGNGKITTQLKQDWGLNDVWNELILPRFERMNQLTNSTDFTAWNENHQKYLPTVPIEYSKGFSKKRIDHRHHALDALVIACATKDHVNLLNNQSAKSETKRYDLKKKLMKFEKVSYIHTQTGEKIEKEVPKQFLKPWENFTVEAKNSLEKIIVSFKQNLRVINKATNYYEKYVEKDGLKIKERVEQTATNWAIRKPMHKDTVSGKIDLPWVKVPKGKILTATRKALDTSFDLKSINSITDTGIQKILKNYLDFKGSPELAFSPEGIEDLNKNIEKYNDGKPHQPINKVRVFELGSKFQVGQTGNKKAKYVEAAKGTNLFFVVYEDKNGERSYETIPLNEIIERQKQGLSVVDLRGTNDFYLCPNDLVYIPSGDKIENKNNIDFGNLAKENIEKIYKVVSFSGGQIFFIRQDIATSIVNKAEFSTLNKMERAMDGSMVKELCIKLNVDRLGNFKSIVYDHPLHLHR

[2] = system: T2, LPG10160 (Chryseobacterium ureilyticum); conditions: PAM SEQ ID 84; 35% pure protein
T2 sequence: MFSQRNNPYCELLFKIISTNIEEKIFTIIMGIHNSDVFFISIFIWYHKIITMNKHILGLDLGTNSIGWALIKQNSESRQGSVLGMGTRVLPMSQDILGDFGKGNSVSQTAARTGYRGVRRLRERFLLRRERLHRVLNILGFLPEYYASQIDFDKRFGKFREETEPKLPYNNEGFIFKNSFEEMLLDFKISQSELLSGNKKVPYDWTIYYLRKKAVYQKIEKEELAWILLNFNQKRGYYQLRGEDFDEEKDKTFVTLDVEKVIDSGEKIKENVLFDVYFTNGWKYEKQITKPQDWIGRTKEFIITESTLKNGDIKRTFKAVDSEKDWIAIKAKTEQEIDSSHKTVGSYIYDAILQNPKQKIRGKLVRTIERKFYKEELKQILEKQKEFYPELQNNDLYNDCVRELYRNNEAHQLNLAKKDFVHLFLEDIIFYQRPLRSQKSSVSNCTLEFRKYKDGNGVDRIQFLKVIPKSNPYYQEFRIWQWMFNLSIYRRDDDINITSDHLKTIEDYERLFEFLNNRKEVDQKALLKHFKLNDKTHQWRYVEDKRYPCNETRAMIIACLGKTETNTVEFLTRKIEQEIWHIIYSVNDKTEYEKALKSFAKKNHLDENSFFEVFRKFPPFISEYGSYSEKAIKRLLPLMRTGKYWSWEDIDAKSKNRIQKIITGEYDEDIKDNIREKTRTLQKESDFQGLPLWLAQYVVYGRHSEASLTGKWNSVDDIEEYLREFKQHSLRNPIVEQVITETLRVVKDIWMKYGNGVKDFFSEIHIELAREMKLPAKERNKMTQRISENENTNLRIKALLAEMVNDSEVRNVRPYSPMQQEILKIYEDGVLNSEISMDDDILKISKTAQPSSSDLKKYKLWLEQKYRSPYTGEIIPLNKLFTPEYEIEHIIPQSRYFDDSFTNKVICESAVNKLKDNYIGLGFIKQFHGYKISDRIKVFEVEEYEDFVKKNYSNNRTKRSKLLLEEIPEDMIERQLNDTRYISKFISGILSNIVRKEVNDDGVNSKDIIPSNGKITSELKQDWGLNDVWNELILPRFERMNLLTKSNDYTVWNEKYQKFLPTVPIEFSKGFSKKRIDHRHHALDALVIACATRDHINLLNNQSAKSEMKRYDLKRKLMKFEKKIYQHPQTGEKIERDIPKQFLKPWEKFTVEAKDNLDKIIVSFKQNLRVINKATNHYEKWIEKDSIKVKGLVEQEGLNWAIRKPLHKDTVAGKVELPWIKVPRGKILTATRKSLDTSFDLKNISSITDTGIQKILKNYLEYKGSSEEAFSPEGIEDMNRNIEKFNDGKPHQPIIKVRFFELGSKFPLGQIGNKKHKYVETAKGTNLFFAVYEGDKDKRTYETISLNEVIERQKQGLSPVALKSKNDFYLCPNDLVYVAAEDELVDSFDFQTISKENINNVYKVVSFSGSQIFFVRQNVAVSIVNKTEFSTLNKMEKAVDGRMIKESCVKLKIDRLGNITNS

[3] = system: T3, LPG10134 (Brevundimonas vesicularis); conditions: PAM NGG; 37C 120 min
T3 sequence: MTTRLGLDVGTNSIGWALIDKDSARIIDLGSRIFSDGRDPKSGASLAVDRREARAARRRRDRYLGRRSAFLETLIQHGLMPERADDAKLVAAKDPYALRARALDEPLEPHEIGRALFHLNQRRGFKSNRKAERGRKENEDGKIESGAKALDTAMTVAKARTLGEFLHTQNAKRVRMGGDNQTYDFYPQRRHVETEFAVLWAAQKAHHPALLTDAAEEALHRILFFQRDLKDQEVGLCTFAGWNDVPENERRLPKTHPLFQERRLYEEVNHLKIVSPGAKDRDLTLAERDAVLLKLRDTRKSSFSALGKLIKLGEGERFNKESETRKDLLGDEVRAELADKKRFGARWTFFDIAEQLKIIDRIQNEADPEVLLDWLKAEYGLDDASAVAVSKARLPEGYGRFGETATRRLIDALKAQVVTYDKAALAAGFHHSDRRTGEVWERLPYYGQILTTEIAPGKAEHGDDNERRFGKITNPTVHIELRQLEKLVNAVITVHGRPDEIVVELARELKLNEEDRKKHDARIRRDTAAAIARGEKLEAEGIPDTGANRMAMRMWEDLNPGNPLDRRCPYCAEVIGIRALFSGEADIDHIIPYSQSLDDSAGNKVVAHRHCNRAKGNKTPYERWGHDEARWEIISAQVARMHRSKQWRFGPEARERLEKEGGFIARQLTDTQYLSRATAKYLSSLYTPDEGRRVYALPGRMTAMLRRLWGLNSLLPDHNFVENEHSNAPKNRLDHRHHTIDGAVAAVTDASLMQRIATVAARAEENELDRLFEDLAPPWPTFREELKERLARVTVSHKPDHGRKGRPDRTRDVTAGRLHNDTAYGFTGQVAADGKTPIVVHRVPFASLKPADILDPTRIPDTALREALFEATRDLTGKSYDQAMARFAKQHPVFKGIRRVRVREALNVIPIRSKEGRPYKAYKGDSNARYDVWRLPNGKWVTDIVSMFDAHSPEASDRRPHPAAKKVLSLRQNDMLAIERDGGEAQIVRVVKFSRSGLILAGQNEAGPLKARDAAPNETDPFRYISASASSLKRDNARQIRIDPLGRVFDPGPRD

Row | Sequence | activity (% target strand cleaved) [1] | activity (% target strand cleaved) [2] | activity (% target strand cleaved) [3]
1 | GUUGUGAAUUGCUUUAAAGAAAGCAAUUCACAAUAAGGAUUAUUCCGUUGUGAAAACAUCUAGCGCCUCGUCUAUCUACGGGGCAUUUU / GGACAGCAGCTTCCTATATCTCGTACAGAAATTC / GAATTTCTGTACGAGATATAGGAAGCTGCTGTCC [LPG10155 sgRNA L1 ; Library 1 target AGAAATTC] | 32.7 | – | –
2 | GUUGUGAUUUGCUUUAAAGAAAGCAAUUCACAAUAAGGAUUAUUCCGUUGUGAAAACAUUUAAGCCCCCUCGUCUUACAAUACGGGGAUUU / GGACAGCAGCTTCCTATATCTCGTACAAATATTC / GAATATTTGTACGAGATATAGGAAGCTGCTGTCC [LPG10160 sgRNA L1 ; Library 1 target AAATATTC] | – | 0 | –
3 | GUUGUGAAUUGCUUUAAAGAAAGCAAUUCACAAUAAGGAUUAUUCCGUUGUGAAAACAUCUAGCGCCUCGUCUAUCUACGGGGCAUUUU / GATATAGACGTTGTGGCTGTTGTAGTAGAAATTC / GAATTTCTACTACAACAGCCACAACGTCTATATC [LPG10155 sgRNA L2 ; Library 2 target AGAAATTC] | 7.6 | – | –
4 | GUUGUGAUUUGCUUUAAAGAAAGCAAUUCACAAUAAGGAUUAUUCCGUUGUGAAAACAUUUAAGCCCCCUCGUCUUACAAUACGGGGAUUU / GATATAGACGTTGTGGCTGTTGTAGTAAATATTC / GAATATTTACTACAACAGCCACAACGTCTATATC [LPG10160 sgRNA L2 ; Library 2 target AAATATTC] | – | 0 | –
5 | CCAUGAUAUAGACGUUGUGGCUGUUGUAGUGUUGCCGCUGGCCUUCGAUUUCUGAAAAGUCAGAAAUCGAAGGCUGGCUGUUAACAAGCAGCUAGACUGCACCAAAUAAGGGCGGGGCUACGGCCCCGUCUUUU / GATATAGACGTTGTGGCTGTTGTAGTAGGACCTC / GAGGTCCTACTACAACAGCCACAACGTCTATATC [LPG10134 sgRNA L2 ; Library 2 target AGGACCTC] | – | – | 0
6 | GUUGCCGCUGGCCUUCGAUUUCUGAAAAGUCAGAAAUCGAAGGCUGGCUGUUAACAAGCAGCUAGACUGCACCAAAUAAGGGCGGGGCUACGGCCCCGUCUUUUGAGCGGACAGCAGCUUCCUAUAUCUCGUAC / GGACAGCAGCTTCCTATATCTCGTACAGGACCTC / GAGGTCCTGTACGAGATATAGGAAGCTGCTGTCC [LPG10134 sgRNA L1 ; Library 1 target AGGACCTC] | – | – | 0
